From the supplement of paper PMC9170038

Test system: MS2 coat protein
Test: apparent KD of MS2 coat protein; designed switch direction (-1 OFF switch, 1 ON switch): -1; higher = weaker reporter binding
Summary of the method: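 Designed RNA switches were transcribed on Illumina chips by stalled E. coli RNA polymerase and titrated with SNAP-549-labelled MS2 coat protein from 0.7 or 1.5 nM, doubling to 3 µM. Step length ran from 0.8–1.5 h at the lowest concentration to 10–20 min at the highest. The apparent KD is the median over clusters for each design, from curve-fitted normalised cluster fluorescence.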

[1] = input ligand: microRNA oligo, concentration not stated
[2] = Eterna round: R95, input ligand: FMN 200 uM
[3] = Eterna round: R95, input ligand: microRNA oligo, concentration not stated
[4] = Eterna round: R95, input ligand: none

| Sequence | apparent KD of MS2 coat protein (input ligand: FMN 200 uM) [nM] | apparent KD of MS2 coat protein (input ligand: none) [nM] | apparent KD of MS2 coat protein [3] [nM] | also measured |
| --- | --- | --- | --- | --- |
| CACCUGAAAGCAGGAUAUCUUACAUGAGGAUCACCCAUGUAAUAAAUGAGAAUUUCGAAUGUAAUAGAGAAGGGCUGAAAAGGC [Ostracism 86 - Jieux - Exclusion NG 2] (Eterna round: R96, puzzle: Exclusion NG 2) | 47 | 40.3 | – | apparent KD of MS2 coat protein [1]: 37.7 nM |
| CACCUGAAGAGAGGAUAUCAUACAUGAGGAUCACCCAUGUAAUAAAUGAGAAUUUCGAAUGUAAUUGAGAAGGCUCGAUAAGGC [Ostricism 92 - Jieux - Exclusion NG 2] (Eterna round: R96, puzzle: Exclusion NG 2) | 109 | 59 | – | apparent KD of MS2 coat protein [1]: 54.9 nM |
| CACGAACAUGAGGAUCACCCAUGUAAGGAUAUGGCCAACGACUUAAACUAAAGGUUGGCCAGAAGGUGCGGGUG [Eternabot (L2) Solution 61] (Eterna round: R97, puzzle: Exclusion 1) | 52.5 | 286 | – | – |
| CACGGGUAAGGAUAUACAAGUGAGAAAGGUAUGUGCAAAUAACAUGAGGAUCACCCAUGUAGAAGGUACGCCGG [Cearxeen] (puzzle: Exclusion 2) | – | – | 16.9 | apparent KD of MS2 coat protein [2]: 27.1 nM; apparent KD of MS2 coat protein [4]: 14.9 nM |
| CACGUGUAAGGAUAUGACAAUGGUAUCUUCGGAUACCAUUGUCAGAAGGUACAUGAGGAUCACCCAUGUAACAC [Ex4-3: 15] (puzzle: Exclusion 4) | – | – | 17.2 | – |
| CACUCACAUGAGGAUCACCCAUGUCAGGAUAUCUCAGUGCAUCCACACGGACGCAUCAAGAGAAGGGACAAAAC [Vinxlusion 1 - Jieux - Exclusion 1] (Eterna round: R97, puzzle: Exclusion 1) | 40.2 | 36.6 | – | – |
| CACUUACAUGAGGAUCACCCAUGUGAGGAUAUCGUGACCAGACGAGAAGUCUAUGUCACGAGAAGGCACGUGGG [Exclusion 1 (Mod 3.1 solution 97 by Eternabot)] (Eterna round: R97, puzzle: Exclusion 1) | 20.8 | 811 | – | – |
| CAGAAUUGAGGAUAUGAUCAAUUUAACAUGAGGAUCACCCAUGUAUGGGAAUGAUUCUGAUCAGAAGGCGAUUCUA [Exclusion 5: 1:b] (puzzle: Exclusion 5) | – | – | 408 | apparent KD of MS2 coat protein [2]: 289 nM; apparent KD of MS2 coat protein [4]: 79 nM |
| CAGAGCAGACGGAGAUCCAACAUGAGGAUCACCCAUGUCUCAAAAGCUUUUUGCUUGUCUUAUCCUCCUCUGUUCAC [Esquitian 2] (Eterna round: R97, puzzle: Sensor, turn-off variant 1) | 18.3 | 17.4 | – | – |
| CAGAGCAGAGGAUAUACAUGAGGAUCACCCAUGUGAUCAUGCUACGGGACGUUACAUUGUAGAAGGCUGCUUUC [Eternabot (L2) Solution 58] (Eterna round: R97, puzzle: Exclusion 3) | 283 | 31.1 | – | – |
| CAGCACUCAGGAUAUACAUGAGGAUCACCCAUGUGUGAACAAGUGAGUGAUUUCCCAUGUAGAAGGGAGAGAUU [Exclusion 3 S1] (Eterna round: R97, puzzle: Exclusion 3) | 183 | 98.2 | – | – |
| CAGCGGUGAGGAUAUACGUAGGUACAGAUCUGUGUGUUCCUACAUGAGGAUCACCCAUGUAGAAGGCAUGGCUG [LRO-Excl2-11] (puzzle: Exclusion 2) | – | – | 37.1 | – |
| CAGCGGUGAGGAUAUUCAAGGUGGGACAUGAGGAUCACCCAUGUACAUAGCUGUACGACCGGAGAAGGCGUGGCAU [Eternabot (L1) Solution 67] (Eterna round: R97, puzzle: Exclusion 5) | 86.5 | 76.3 | – | – |
| CAGCUGAAAGUCAGGAUAUCUAGAGCUUCGGCUCUAGAGAAGGGACAUGAGGAUCACCCAUGUCACUCCAGCUG [BmEx4/3-A1] (Eterna round: R97, puzzle: Brourd's mod of Exclusion 4) | 18.9 | 18.2 | – | – |
| CAGGAAAUAGAGGAUAUAGGAGUCGAUAGACUCCUAGAAGGCUAUACAUGAGGAUCACCCAUGUGUCCUACCUG [Fiskers Ex 6 - 69] (puzzle: Exclusion 6) | – | – | 14.6 | – |
| CAGGAUAGAGGAUAUACAUAGAUACAGAUUCAUGUGGUCCUACAUGAGGAUCACCCAUGUAGAAGGCUAUCCUG [Fiskers Ex 2 - 22] (puzzle: Exclusion 2) | – | – | 180 | – |
| CAGGCUACAAACGCUCGUCACAUGAGGAUCACCCAUGUACGCCUCUAUCGUAAGUCCAGCGUUCGCUGGCAAGGGUA [Eternabot (Original) Solution 19] (Eterna round: R97, puzzle: Sensor, turn-off variant 1) | 47.5 | 56.2 | – | – |
| CAGGGUAGAGGAUAUACGUAGGUACAGAUCUGUGUGUUCCUACAUGAGGAUCACCCAUGUAGAAGGCUAGCCUG [LRO-Excl2-08] (puzzle: Exclusion 2) | – | – | 77.9 | – |
| CAGUACAGAGGAUAUACAUGAGGAUCACCCAUGUGUUUCAGCUAGGAGACUAGCGAAAGUAGAAGGCUGUACUA [salish99_ex3_r4_003] (Eterna round: R97, puzzle: Exclusion 3) | 25.7 | 9.41 | – | – |
| CAGUACUACAAGCUUAGGGACAUGAGGAUCACCCAUGUUCGUCUUAUUGAUCUAGGUACGCUGACGUACCUAGAUCU [JL-sv1-2.12 Brourd mod] (puzzle: Sensor v3, turn-off variant 1) | – | – | 29.9 | apparent KD of MS2 coat protein [2]: 15.7 nM; apparent KD of MS2 coat protein [4]: 15 nM |
| CAGUACUACAAGCUUUGGGACAUGAGGAUCACCCAUGUUCGUCUUAUUGAUCUAGGUACGCUGACGUACCUAGAUCU [JL-sv1-2.11 Brourd mod] (puzzle: Sensor v3, turn-off variant 1) | – | – | 33.1 | apparent KD of MS2 coat protein [2]: 16.7 nM; apparent KD of MS2 coat protein [4]: 15.3 nM |
| CAGUACUGAGGAUAUACAUGAGGAUCACCCAUGUAUCCAAGCUAGGAAACUAGCAAAUGUAGAAGGCAGUACUG [Ex3: 821] (Eterna round: R96, puzzle: Exclusion 3) | – | – | – | apparent KD of MS2 coat protein [1]: 30.9 nM |
| CAGUACUGAGGAUAUACAUGAGGAUCACCCAUGUAUCCUAGCUAGGAAACUAGCAAAAGUAGAAGGCAGUACUG [Ex3: 819] (Eterna round: R96, puzzle: Exclusion 3) | – | – | – | apparent KD of MS2 coat protein [1]: 12.4 nM |
| CAGUACUGAGGAUAUACAUGAGGAUCACCCAUGUCAGAGAUACUAGUGAGGUCGAUUAGUAGAAGGCAGUACUG [Mat X3R4 m30] (Eterna round: R97, puzzle: Exclusion 3) | 621 | 43.5 | – | – |
